Reference: US12577571B2, “Mutant DNase1L3 with improved serum half-life” (Texas Tech University System, priority 2019, dated 2026)

Key:
[1] = system: plasmid DNA; assay: Plasmid DNA degradation by Dnase1L3 (agarose gel); format: biochemical; details: increasing dilutions with 200 ng plasmid DNA, 30 min at 37° C., 200 mM Tris pH 7.4, 50 mM MgCl2, 20 mM CaCl2; 1% agarose gel
From the text: FIGS. 1A to 1E show the results from the modified Dnase1L3 of the present invention. […] (FIG. 1A) Dnase1L3 was affinity purified with Nickel NTA agarose, then cleaved with Tobacco Etch Virus protease TEV protease. Cleaved Dnase1L3 was further purified by anion exchange and then by size exclusion chromatography. Fractions from the final size exclusion purification were resolved by SDS-PAGE and Coomassie stained. Fractions 7-9 show purified Dnase1L3 at the expected 36 kDa size. Molecular weight in kDa is shown. (FIG. 1B) The indicated amounts of purified Dnase1L3 were resolved by SDS-PAGE, transferred to nitrocellulose and probed with anti-Dnase1L3 primary antibody, anti-rabbit HRP secondary antibody and developed with enhanced chemiluminescence. (FIG. 1C) Recombinant, […] mM Tris pH 7.4, 50 mM MgCl2, 20 mM CaCl2 with or without 100 μM Dnase1L3 inhibitors fmoc-D-cyclohexylalanine (FCA) or Pontacyl Violet 6R (PV). Remaining plasmid DNA resolved on a 1% agarose gel. # indicates non-degraded DNA (i.e. supercoiled, nicked and linear DNA). The absence of DNA indicates degradation. (FIG. 1D) Purified Dnase1L3 was conjugated to PEG. Unconjugated Dnase1L3, PEGylated Dnase1L3 (PEG-D1L3), or free PEG were resolved by SDS-PAGE and visualized with Coomassie Blue. The 36 kDa band has increased in size to 41 kDa, indicating successful PEGylation. Molecular weight in kDa is shown. […]

[2] = system: DNA present as chromatin or apoptotic bodies; details: background, Sisirak et al 2016, Napirei et al 2009, Wilber et al 2002; cited from earlier work

B1: PEGylated Dnase1L3: Purified Dnase1L3 conjugated to PEG (PEG-maleimide); band shifts from 36 kDa to 41 kDa (conjugate, UniProt Q13609 21-305, looked up)
Deoxyribonuclease gamma: MRICSFNVRSFGESKQEDKNAMDVIVKVIKRCDIILVMEIKDSNNRICPILMEKLNRNSRRGITYNYVISSRLGRNTYKEQYAFLYKEKLVSVKRSYHYHDYQDGDADVFSREPFVVWFQSPHTAVKDFVIIPLHTTPETSVKEIDELVEVYTDVKHRWKAENFIFMGDFNAGCSYVPKKAWKNIRLRTDPRFVWLIGDQEDTTVKKSTNCAYDRIVLRGQEIVSSVVPKSNSVFDFQKAYKLTEEEALDVSDHFPVEFKLQSSRAFTNSKKSVTLRKKTKSKRS
modifications: PEG-maleimide conjugate
notes: Purified Dnase1L3 conjugated to PEG (PEG-maleimide); band shifts from 36 kDa to 41 kDa
endonuclease activity (degradation of plasmid DNA) [1]: potent endonuclease

B2: Dnase1: DNase I protein of the background art; poorly digests chromatin DNA (protein, UniProt P24855 23-282, looked up)
Deoxyribonuclease-1: LKIAAFNIQTFGETKMSNATLVSYIVQILSRYDIALVQEVRDSHLTAVGKLLDNLNQDAPDTYHYVVSEPLGRNSYKERYLFVYRPDQVSAVDSYYYDDGCEPCGNDTFNREPAIVRFFSRFTEVREFAIVPLHAAPGDAVAEIDALYDVYLDVQEKWGLEDVMLMGDFNAGCSYVRPSQWSSIRLWTSPTFQWLIPDSADTTATPTHCAYDRIVVAGMLLRGAVVPDSALPFNFQAAYGLSDQLAQAISDHYPVEVMLK
digestion of DNA present as chromatin or apoptotic bodies [2]: poorly digests
